Test results taken from patent US20190144917.

Columns and labels:
[1] = tested on: DMNPE-veiled C1-NPs (STREAMs)
[2] = tested on: S3: Biotin-CGPLGVRGKK(Cy7)eGvndneeGffsar-NH2
[3] = tested on: S1: Biotin-CGPVGLIGK(Cy7)eGvndneeGffsar-NH2
[4] = tested on: C1-NPs: fluorescein-conjugated MMP substrate peptide C1 (FAM-sk-PLGLEEA-GC) coupled to iron oxide nanoparticles
[5] = tested on: S2: Biotin-CGPVPLSLVMK(Cy7)eGvndneeGffsar-NH2
S2: Biotin-CGPVPLSLVMK(Cy7)eGvndneeGffsar-NH2, sequence (chain, as listed by the source): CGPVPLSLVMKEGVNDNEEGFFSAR

recombinant MMP9, sequence (chain, as listed by the source): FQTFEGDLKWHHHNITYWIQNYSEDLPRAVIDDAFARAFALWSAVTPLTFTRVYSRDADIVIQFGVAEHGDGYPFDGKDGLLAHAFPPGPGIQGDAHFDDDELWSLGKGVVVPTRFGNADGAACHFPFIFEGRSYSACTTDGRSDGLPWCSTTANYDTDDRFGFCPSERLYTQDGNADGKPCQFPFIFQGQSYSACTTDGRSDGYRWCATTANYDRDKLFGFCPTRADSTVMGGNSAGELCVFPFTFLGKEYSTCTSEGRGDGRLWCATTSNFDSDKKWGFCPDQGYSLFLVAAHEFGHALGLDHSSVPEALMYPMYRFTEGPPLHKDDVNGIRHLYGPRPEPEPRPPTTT
recombinant MMP2, sequence (chain, as listed by the source): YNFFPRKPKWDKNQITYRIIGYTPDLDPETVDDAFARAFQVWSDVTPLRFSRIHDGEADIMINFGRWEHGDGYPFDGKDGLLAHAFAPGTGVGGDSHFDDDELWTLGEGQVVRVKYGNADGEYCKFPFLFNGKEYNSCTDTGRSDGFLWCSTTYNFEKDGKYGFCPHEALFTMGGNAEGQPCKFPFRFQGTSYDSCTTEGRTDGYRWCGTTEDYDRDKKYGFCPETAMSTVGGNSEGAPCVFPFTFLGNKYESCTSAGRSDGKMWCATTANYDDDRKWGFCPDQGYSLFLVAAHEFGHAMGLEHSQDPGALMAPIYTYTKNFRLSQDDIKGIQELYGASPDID
S1: Biotin-CGPVGLIGK(Cy7)eGvndneeGffsar-NH2, sequence (chain, as listed by the source): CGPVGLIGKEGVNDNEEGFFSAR
S3: Biotin-CGPLGVRGKK(Cy7)eGvndneeGffsar-NH2, sequence (chain, as listed by the source): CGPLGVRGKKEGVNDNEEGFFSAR
recombinant MMP19, sequence (chain, as listed by the source): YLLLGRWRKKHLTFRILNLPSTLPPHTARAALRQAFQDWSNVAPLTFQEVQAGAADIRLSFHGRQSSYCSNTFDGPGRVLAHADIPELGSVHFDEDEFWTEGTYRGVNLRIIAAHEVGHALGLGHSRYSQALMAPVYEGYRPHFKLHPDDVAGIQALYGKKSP

Substance	proteolysis (fluorescence dequenching) [1]	relative proteolysis (Cy7 signal after streptavidin depletion of uncleaved peptide) [2]	relative proteolysis (Cy7 signal after streptavidin depletion of uncleaved peptide) [3]	proteolysis (fluorescence dequenching) [4]	also measured
recombinant MMP9	marked reduction in proteolysis	responded primarily to MMP2 and MMP9	responded primarily to MMP2 and MMP9	significantly cleaved by MMP13, 7, 1, and 9	catalytic efficiency (Michaelis-Menten fit) [4]: catalytic efficiencies>10^3 M^-1 s^-1 and 10^4 M^-1 s^-1, respectively
recombinant MMP13	marked reduction in proteolysis	–	–	significantly cleaved by MMP13, 7, 1, and 9	fluorescence dequenching measurements of protease cleavage [4]: with MMP13 as the most efficient
recombinant thrombin	–	–	–	–	cleavage monitored by fluorescence release [1]: reduced cleavage of the substrate
recombinant MMP19	–	–	–	–	relative proteolysis (Cy7 signal after streptavidin depletion of uncleaved peptide) [5]: cleaved efficiently by MMP7 and MMP19
recombinant MMP2	–	responded primarily to MMP2 and MMP9	responded primarily to MMP2 and MMP9	–	–
